The assay has as its target ISAV s8ORF2 protein (protein encoded by the largest open reading frame of gene segment 8) (infectious salmon anaemia virus (ISAV), strain Glesvaer/2/90). Description: non-reducing SDS-PAGE with western blot.

Usually stoichiometry N stands for the number of molecules, sites or subunits per partner or assembly. “ISAV s8ORF2 protein (protein encoded by the largest open reading frame of gene segment 8) (natural protein)” yielded a stoichiometry N of 2.

The record behind these values is paper PMC4776207.
